This is an account of results in patent publication US20110027907A1 (AUCKLAND UNISERVICE, published 2011).

The target of the assay is T1, recombinant SSL7 (GL1 S. aureus Greenlane), wild type (Staphylococcus aureus).
T1 construct: also called rSSL7; SET1 GL1
The experiment in a line: co-crystal structure.

B1: recombinant IgA Fc (Cys242 to Pro455 of human IgA1) (other)
chain: CHPRLSLHRPALEDLLLGSEANLTCTLTGLRDASGVTFTWTPSSGKSAVQGPPERDLCGCYSVSSVLPGCAEPWNHGKTFTCTAAYPESKTPLTATLSKSGNTFRPEVHLLPPPSEELALNELVTLTCLARGFSPKDVLVRWLQGSQELPREKYLTWASRQEPSQGTTTFAVTSILRVAAEDWKKGDTFSCMVGHEALPLAFTQKTIDRLAGKP
notes: range 242-455
B1: the binding result was “binds”.
